Key:
LRP2 CR3536 = molecular target: T1, LRP2 CR3536 (human, UniProt P98164 3882-3963); experiment: solid-phase assay on coated CR protein, each ligand at 80 nM, blank-corrected absorbance
T1 construct: domain: CR3536; not shown: N-terminal hexahistidine and S-peptide tags of pET30(+)a
Experimental: (§1) Samples were tested twice, in duplicate, and values combined. Means and standard deviations were then calculated. Blank values obtained from wells incubated in the absence of ligand were used to correct absorbance data.
(§2) Solid phase binding assays-Purified, refolded CR protein (1 μg) was bound to Nunc Maxisorp™ 96-well plates in TBS pH 8 supplemented with 5 mM CaCl₂ (TBSC) overnight at 4° C. Wells were washed with TBSC and then blocked with TBSC containing 2% bovine serum albumin (BSA). […] Control wells contained no added ligand. As an additional control, to determine whether the absence of calcium affected binding, 10 mM EGTA was included in the incubation medium for some samples. […] Excess primary antibody was removed and wells washed before incubation with the secondary antibody, HRP-conjugated goat anti rabbit IgG (Bio-Rad). After washing, TMB substrate solutions (Bio-Rad) were added to detect HRP. Color development was stopped with 1N HCl. Absorption at 450 nm was measured with a microplate spectrophotometer (Molecular Devices). Data were plotted and Kd values derived by non-linear regression with the assumption of single-site binding (GraphPad Prism).

LRP2 CR34-36 = molecular target: T2, LRP2 CR34-36 (human, UniProt P98164 3841-3963); experiment: as above
T2 construct: domain: CR34-36; not shown: N-terminal hexahistidine and S-peptide tags of pET30(+)a
T2 sequence (P98164 3841-3963): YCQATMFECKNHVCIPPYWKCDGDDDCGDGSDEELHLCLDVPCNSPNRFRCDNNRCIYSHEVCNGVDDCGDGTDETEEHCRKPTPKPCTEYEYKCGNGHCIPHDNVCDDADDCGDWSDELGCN
Experimental: as §1, §2

LRP2 CR2728 = molecular target: T3, LRP2 CR2728 (human, UniProt P98164 3552-3631); experiment: as above
T3 construct: domain: CR2728; Its cloning is not described in the methods; not shown: N-terminal hexahistidine and S-peptide tags of pET30(+)a
T3 sequence (looked up): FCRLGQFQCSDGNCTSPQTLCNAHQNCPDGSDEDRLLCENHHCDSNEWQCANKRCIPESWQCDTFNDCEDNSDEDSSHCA
Experimental: as §1, §2

LRP2 CR3031 = molecular target: T4, LRP2 CR3031 (human, UniProt P98164 3677-3755); experiment: as above
T4 construct: domain: CR3031; Its cloning is not described in the methods; not shown: N-terminal hexahistidine and S-peptide tags of pET30(+)a
T4 sequence (P98164 3677-3755): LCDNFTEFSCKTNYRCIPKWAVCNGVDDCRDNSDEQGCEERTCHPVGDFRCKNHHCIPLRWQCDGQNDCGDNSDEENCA
Experimental: as §1, §2

MAT CR12 = molecular target: T5, MAT CR12 (human, UniProt Q9Y5Y6 452-524); experiment: as above
T5 construct: also called ST14 CR12; matriptase CR12
T5 sequence: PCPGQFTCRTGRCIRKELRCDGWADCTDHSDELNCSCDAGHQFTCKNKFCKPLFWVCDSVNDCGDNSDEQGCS
Experimental: as §1, §2

LRP2 CR89 V1047D = molecular target: T6, LRP2 CR89 V1047D (human, UniProt P98164 1022-1105); experiment: solid-phase assay; OD at the highest ligand concentration as percent of the highest OD of all ligands
T6 construct: also called YDWR
T6 sequence: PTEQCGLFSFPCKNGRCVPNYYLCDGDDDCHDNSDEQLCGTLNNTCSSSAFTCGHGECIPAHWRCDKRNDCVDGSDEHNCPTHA
Experimental: as §2
(§3) To test this idea, mutant LRP2 CR89 were prepared in which the native, non-canonical residues at these positions were sequentially substituted with the non-native, canonical residues. As defined above, the A, C, A′, C′ string for LRP2 CR89 is YVWR. Mutants included LRP2 CR89 Y1042W (WVWR), LRP2 CR89 V1047D (YDWR), LRP2 CR89 R1088D (YVWD), LRP2 CR89 V1047D R1088D (YDWD), LRP2 CR89 Y1042W V1047D R1088D (WDWD), LRP2 CR89 Y1042W V1047D (WDWR), LRP2 CR89 Y1042W R1088D (WVWD).

LRP2 CR89 R1088D = molecular target: T7, LRP2 CR89 R1088D (human, UniProt P98164 1022-1105); experiment: as above
T7 construct: also called YVWD
Experimental: as §2, §3

T1 sequence (P98164 3882-3963): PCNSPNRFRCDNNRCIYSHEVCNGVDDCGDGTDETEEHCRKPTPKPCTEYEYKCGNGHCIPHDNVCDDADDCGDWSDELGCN

binding result (LRP2 CR3536): no binding (tested: 80 nM)
binding result (LRP2 CR34-36): no binding (tested: 80 nM)
binding result (LRP2 CR2728): no binding (tested: 80 nM)
binding result (LRP2 CR3031): no binding (tested: 80 nM)
binding result (MAT CR12): no binding (tested: 80 nM)
% max bind (LRP2 CR89 V1047D): 11%
% max bind (LRP2 CR89 R1088D): 55%
B1: MegaRAP1 d3 (ligand)
chain: LDRLRRVSHQGYTTEAKFEEPRVIDLWDLAQSANLTDKELEAFREELKYFKAKIEAHNHYQKQLEIAHEELRHAESVGDGERVSRSREKHALLEGRTKELGYTVKKHLQDLSGRISRAR
notes: V175L lies outside the d3 construct; also called RAPv2A d3; RAP v2 d3; not shown: N-terminal hexahistidine and S-peptide tags of pET30(+)a

From patent publication US20100210517A1 (RAPTOR PHARMACEUTICAL, published 2010)
